We go through one molecule from paper PMC4423619 (Journal of glycomics & lipidomics, 2015).

The test deals with T1, rat testis FSH receptor (rat (endogenous in rat testis), UniProt P20395 18-692).
T1 sequence (looked up): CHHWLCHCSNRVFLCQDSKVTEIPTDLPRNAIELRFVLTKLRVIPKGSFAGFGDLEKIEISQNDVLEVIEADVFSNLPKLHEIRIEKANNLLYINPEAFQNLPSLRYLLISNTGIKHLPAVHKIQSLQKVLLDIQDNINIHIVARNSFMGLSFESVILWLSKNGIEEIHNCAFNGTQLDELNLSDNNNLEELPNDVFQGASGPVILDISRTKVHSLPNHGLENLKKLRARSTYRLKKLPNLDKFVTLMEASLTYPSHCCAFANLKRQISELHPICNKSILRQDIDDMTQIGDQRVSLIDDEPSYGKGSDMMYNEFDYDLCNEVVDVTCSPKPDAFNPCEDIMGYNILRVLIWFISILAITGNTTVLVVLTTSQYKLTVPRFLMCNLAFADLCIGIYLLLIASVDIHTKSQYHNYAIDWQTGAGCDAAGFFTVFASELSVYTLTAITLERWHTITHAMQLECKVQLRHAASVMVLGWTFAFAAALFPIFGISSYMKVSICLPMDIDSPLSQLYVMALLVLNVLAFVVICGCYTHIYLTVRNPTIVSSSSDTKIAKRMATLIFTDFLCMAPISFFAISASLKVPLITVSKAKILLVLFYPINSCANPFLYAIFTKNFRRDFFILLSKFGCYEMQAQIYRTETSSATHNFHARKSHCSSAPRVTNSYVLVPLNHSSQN
Put plainly: radioligand binding.

B1: human pituitary hFSH^24 glycoform (fully-glycosylated hFSH^24) (complex)
chain 1: not shown
chain 2: NSCELTNITIAIEKEECRFCISINTTWCAGYCYTRDLVYKDPARPKIQKTCTFKELVYETVRVPGCAHHADSLYTYPVATQCHCGKCDSDSTDCTVRGLGPSYCSFGEMKE
modifications: N-glycans at Asn52 and Asn78 | N-glycans at Asn7 and Asn24
B1 gave an ID50 of 269 ng.
